Measured values as given in paper PMC2809091, “Dissociation of the Octameric Enolase from S. Pyogenes - One Interface Stabilizes Another” (PLoS ONE, 2010).

Molecular target: the molecule itself
Assay: AUC; sedimentation velocity, 35,000 rpm, 15°C; 2.7 µM enolase (subunits) in TME buffer (50 mM Tris/HCl, 1 mM Mg(OAc)2, 0.1 mM EDTA, pH 7.4) without NaClO4; c(s) analysis (SEDFIT), mass also from DLS radius and DCDT+; octamer

B1: wild type octameric enolase from S. pyogenes (enzyme, UniProt P69949 1-435, looked up)
chain: MSIITDVYAREVLDSRGNPTLEVEVYTESGAFGRGMVPSGASTGEHEAVELRDGDKSRYLGLGTQKAVDNVNNIIAEAIIGYDVRDQQAIDRAMIALDGTPNKGKLGANAILGVSIAVARAAADYLEVPLYTYLGGFNTKVLPTPMMNIINGGSHSDAPIAFQEFMIMPVGAPTFKEGLRWGAEVFHALKKILKERGLVTAVGDEGGFAPKFEGTEDGVETILKAIEAAGYEAGENGIMIGFDCASSEFYDKERKVYDYTKFEGEGAAVRTSAEQVDYLEELVNKYPIITIEDGMDENDWDGWKVLTERLGKRVQLVGDDFFVTNTEYLARGIKENAANSILIKVNQIGTLTETFEAIEMAKEAGYTAVVSHRSGETEDSTIADIAVATNAGQIKTGSLSRTDRIAKYNQLLRIEDQLGEVAQYKGIKSFYNLKK
notes: enolase (EC 4.2.1.11) of Streptococcus pyogenes; no removal of the His tag is described; also called wild type enolase; wild type enzyme; source: E. coli BL21(DE3), pET-14b, purified (Ni-NTA, dialysis, (NH4)2SO4 precipitation)
stoichiometry N: 8
